From article PMC12756740, “A GH42 β‑Galactosidase from the Human Isolate Bifidobacterium breve DSM 20213: Biochemical and Transgalactosylation Properties Reveal the Potential for Galacto-oligosaccharides Synthesis” (ACS Omega, 2025)

Target: GH42 β-galactosidase Bbreβgal-III from Bifidobacterium breve DSM 20213 (Bifidobacterium breve DSM 20213)
Assay: SEC-MALS; OMNISEC multidetector GPC/SEC (RI, UV/Vis, RALS 90° + LALS 7°); 22 μL injected at 13.4 mg/mL, 0.5 mL/min, 20 °C, DPBS without Ca2+ and Mg2+; dn/dc 0.185 mL/g; oligomeric state of the enzyme

stoichiometry N: 3
Substance: GH42 β-galactosidase Bbreβgal-III from Bifidobacterium breve DSM 20213 (enzyme)
